The test system of series [1] is HeLa Kyoto. Put plainly: thermal stability score vs G1/S (z-score of summed log2 fold changes over temperatures); higher = more thermally stable than in G1/S.
Series [2] has as its system HeLa Kyoto. Nature of the series: solubility in G1/S (NP-40 vs SDS abundance) (log2 ratio); higher = more soluble. The following applies: cell cycle stage: G1/S.
Series [3] deals with HeLa Kyoto. Nature of the series: melting temperature (median over replicates), in situ; higher = more thermally stable.
The subject of series [4] is HeLa Kyoto. Put plainly: solubility change mitosis vs G1/S (difference of NP-40 vs SDS log2 ratios) (log2 ratio difference); higher = more soluble in mitosis.
Setting [5] is: cell cycle stage: early G1 (4.5 h after nocodazole release).
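Wherever melting temperature (median over replicates), in situ is given: HeLa Kyoto cells synchronized by double thymidine or nocodazole block, proteins quantified by TMT10plex mass spectrometry, three independent biological replicates.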
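Wherever solubility change mitosis vs G1/S (difference of NP-40 vs SDS log2 ratios) is given: synchronized HeLa Kyoto cells (double thymidine block for G1/S, nocodazole release for mitosis), protein amounts in NP-40 versus SDS lysates quantified by mass spectrometry, three biological replicates.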
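Wherever solubility in G1/S (NP-40 vs SDS abundance) is given: HeLa Kyoto cells arrested at G1/S by double thymidine block, proteins quantified by TMT10plex mass spectrometry in mild NP-40 versus SDS extracts, three biological replicates.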
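Wherever thermal stability score vs G1/S (z-score of summed log2 fold changes over temperatures) is given: synchronized HeLa Kyoto cells, proteins quantified by TMT10plex mass spectrometry, three biological replicates, mitosis taken 0.5 h after nocodazole release, G1/S directly after double thymidine block.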

For “MMGHRPVLVLSQNTKRESGRKVQSGNINAAKTIADIIRTCLGPKSMMKMLLDPMGGIVMTNDGNAILREIQVQHPAAKSMIEISRTQDEEVGDGTTSVIILAGEMLSVAEHFLEQQMHPTVVISAYRKALDDMISTLKKISIPVDISDSDMMLNIINSSITTKAISRWSSLACNIALDAVKMVQFEENGRKEIDIKKYARVEKIPGGIIEDSCVLRGVMINKDVTHPRMRRYIKNPRIVLLDSSLEYKKGESQTDIEITREEDFTRILQMEEEYIQQLCEDIIQLKPDVVITEKGISDLAQHYLMRANITAIRRVRKTDNNRIARACGARIVSRPEELREDDVGTGAGLLEIKKIGDEYFTFITDCKDPKACTILLRGASKEILSEVERNLQDAMQVCRNVLLDPQLVPGGGASEMAVAHALTEKSKAMTGVEQWPYRAVAQALEVIPRTLIQNCGASTIRLLTSLRAKHTQENCETWGVNGETGTLVDMKELGIWEPLAVKLQTYKTAVETAVLLLRIDDIVSGHKKKGDDQSRQGGAPDAGQE [CCT3]”, the values for the thermal stability score in series [1] (setting [5]) and in series [1] (cell cycle stage: mitosis) were 0.0574 and -0.798, respectively. For the same sequence, in series [2], the “solubility in G1/S (log2)” value came out at 0.216. Moreover, the values for the melting temperature in series [3] (cell cycle stage: G1/S) and in series [3] (cell cycle stage: mitosis) were 54 °C and 53.6 °C, respectively. The “solubility change mitosis (log2)” value in series [4] is -0.131.
Take “MMLGTEGGEGFVVKVRGLPWSCSADEVQRFFSDCKIQNGAQGIRFIYTREGRPSGEAFVELESEDEVKLALKKDRETMGHRYVEVFKSNNVEMDWVLKHTGPNSPDTANDGFVRLRGLPFGCSKEEIVQFFSGLEIVPNGITLPVDFQGRSTGEAFVQFASQEIAEKALKKHKERIGHRYIEIFKSSRAEVRTHYDPPRKLMAMQRPGPYDRPGAGRGYNSIGRGAGFERMRRGAYGGGYGGYDDYNGYNDGYGFGSDRFGRDLNYCFSGMSDHRYGDGGSTFQSTTGHCVHMRGLPYRATENDIYNFFSPLNPVRVHIEIGPDGRVTGEADVEFATHEDAVAAMSKDKANMQHRYVELFLNSTAGASGGAYEHRYVELFLNSTAGASGGAYGSQMMGGMGLSNQSSYGGPASQQLSGGYGGGYGGQSSMSGYDQVLQENSSDFQSNIA [HNRNPH1]”: the thermal stability score in series [1] (setting [5]) is 3.39; in series [1] (cell cycle stage: mitosis), 8.7. In addition, the “solubility in G1/S (log2)” value in series [2] worked out at 0.047. For the same sequence, the melting temperature amounted to 47.5 °C in series [3] (cell cycle stage: G1/S) and 48.2 °C in series [3] (cell cycle stage: mitosis). For the same sequence, the “solubility change mitosis (log2)” value in series [4] is -0.00635.
Turning to “MMNKLYIGNLSPAVTADDLRQLFGDRKLPLAGQVLLKSGYAFVDYPDQNWAIRAIETLSGKVELHGKIMEVDYSVSKKLRSRKIQIRNIPPHLQWEVLDGLLAQYGTVENVEQVNTDTETAVVNVTYATREEAKIAMEKLSGHQFENYSFKISYIPDEEVSSPSPPQRAQRGDHSSREQGHAPGGTSQARQIDFPLRILVPTQFVGAIIGKEGLTIKNITKQTQSRVDIHRKENSGAAEKPVTIHATPEGTSEACRMILEIMQKEADETKLAEEIPLKILAHNGLVGRLIGKEGRNLKKIEHETGTKITISSLQDLSIYNPERTITVKGTVEACASAEIEIMKKLREAFENDMLAVNQQANLIPGLNLSALGIFSTGLSVLSPPAGPRGAPPAAPYHPFTTHSGYFSSLYPHHQFGPFPHHHSYPEQEIVNLFIPTQAVGAIIGKKGAHIKQLARFAGASIKIAPAEGPDVSERMVIITGPPEAQFKAQGRIFGKLKEENFFNPKEEVKLEAHIRVPSSTAGRVIGKGGKTVNELQNLTSAEVIVPRDQTPDENEEVIVRIIGHFFASQTAQRKIREIVQQVKQQEQKYPQGVASQRSK [IGF2BP2]”, the thermal stability score in series [1] (setting [5]) was -0.347; in series [1] (cell cycle stage: mitosis), -0.134. In addition, the “solubility in G1/S (log2)” value in series [2] is -0.0149. Besides, the melting temperature in series [3] (cell cycle stage: G1/S) stood at 48.7 °C; in series [3] (cell cycle stage: mitosis), 47.8 °C. The “solubility change mitosis (log2)” value in series [4] was found to be 0.0614.
“MMRLRGSGMLRDLLLRSPAGVSATLRRAQPLVTLCRRPRGGGRPAAGPAAAARLHPWWGGGGWPAEPLARGLSSSPSEILQELGKGSTHPQPGVSPPAAPAAPGPKDGPGETDAFGNSEGKELVASGENKIKQGLLPSLEDLLFYTIAEGQEKIPVHKFITALKSTGLRTSDPRLKECMDMLRLTLQTTSDGVMLDKDLFKKCVQSNIVLLTQAFRRKFVIPDFMSFTSHIDELYESAKKQSGGKVADYIPQLAKFSPDLWGVSVCTVDGQRHSTGDTKVPFCLQSCVKPLKYAIAVNDLGTEYVHRYVGKEPSGLRFNKLFLNEDDKPHNPMVNAGAIVVTSLIKQGVNNAEKFDYVMQFLNKMAGNEYVGFSNATFQSERESGDRNFAIGYYLKEKKCFPEGTDMVGILDFYFQLCSIEVTCESASVMAATLANGGFCPITGERVLSPEAVRNTLSLMHSCGMYDFSGQFAFHVGLPAKSGVAGGILLVVPNVMGMMCWSPPLDKMGNSVKGIHFCHDLVSLCNFHNYDNLRHFAKKLDPRREGGDQRVKSVINLLFAAYTGDVSALRRFALSAMDMEQRDYDSRTALHVAAAEGHVEVVKFLLEACKVNPFPKDRWNNTPMDEALHFGHHDVFKILQEYQVQYTPQGDSDNGKENQTVHKNLDGLL”: the values for the thermal stability score in series [1] (setting [5]) and in series [1] (cell cycle stage: mitosis) were 0.55 and 2.21, respectively. The “solubility in G1/S (log2)” value in series [2] came out at 0.0237. Also, the figures for the melting temperature in series [3] (cell cycle stage: G1/S) and in series [3] (cell cycle stage: mitosis) were 49.7 °C and 50.4 °C, respectively. Also, the “solubility change mitosis (log2)” value in series [4] is -0.0383.

For the origin of these results see the supplement of paper PMC5998384.
